US20190321483A1 (Novartis, published 2019)

B1: J3: Anti-cKIT Fab′3 conjugated to Compound (1), DAR 4 (Fab, V domains shown)
VH: QVQLVQSGAEVKKPGSSVKVSCKASGGTFSSYAISWVRQAPGQGLEWMGTIGPFEGQPRYAQKFQGRVTITADESTSTAYMELSSLRSEDTAVYYCARGGYISDFDVWGQGTLVTVSS
VL: DIQMTQSPSSLSASVGDRVTITCRASQSISNYLAWYQQKPGKAPKLLIYDASSLQSGVPSRFSGSGSGTDFTLTISSLQPEDFATYYCQQYYYESITFGQGTKVEIKR
modifications: Compound (1) on native cysteine LC-214C (EU); Compound (1) on native cysteines HC-220C-226C-229C (EU)
B2: J19: Anti-cKIT Fab′2 conjugated to Compound (2), DAR 4 (Fab, V domains shown)
VH: QVQLVQSGAEVKKPGSSVKVSCKASGGTFSSHALSWVRQAPGQGLEWMGGIIPSFGTADYAQKFQGRVTITADESTSTAYMELSSLRSEDTAVYYCARGLYDFDYWGQGTLVTVSS
VL: DIQMTQSPSSLSASVGDRVTITCRASQDISQDLAWYQQKPGKAPKLLIYDASSLQSGVPSRFSGSGSGTDFTLTISSLQPEDFAVYYCQQYYYLPSTFGQGTKVEIKR
modifications: Compound (2) on native cysteine LC-214C (EU); Compound (2) on native cysteines HC-220C-226C-229C (EU)
B3: J17: Anti-cKIT Fab′2 conjugated to mc-MMAF, DAR 4 (Fab, V domains shown)
VH: QVQLVQSGAEVKKPGSSVKVSCKASGGTFSSHALSWVRQAPGQGLEWMGGIIPSFGTADYAQKFQGRVTITADESTSTAYMELSSLRSEDTAVYYCARGLYDFDYWGQGTLVTVSS
VL: DIQMTQSPSSLSASVGDRVTITCRASQDISQDLAWYQQKPGKAPKLLIYDASSLQSGVPSRFSGSGSGTDFTLTISSLQPEDFAVYYCQQYYYLPSTFGQGTKVEIKR
modifications: mc-MMAF on native cysteine LC-214C (EU); mc-MMAF on native cysteines HC-220C-226C-229C (EU)
B4: J15: Anti-cKIT Fab′1 conjugated to Compound (5), DAR 4 (Fab, V domains shown)
VH: QVQLVQSGAEVKKPGSSVKVSCKASGGTFSSYAISWVRQAPGQGLEWMGVIFPAEGAPGYAQKFQGRVTITADESTSTAYMELSSLRSEDTAVYYCARGGYISDFDVWGQGTLVTVSS
VL: DIQMTQSPSSLSASVGDRVTITCRASQSISNYLAWYQQKPGKAPKLLIYDASSLQSGVPSRFSGSGSGTDFTLTISSLQPEDFATYYCQQYYYESITFGQGTKVEIKR
modifications: Compound (5) on native cysteine LC-214C (EU); Compound (5) on native cysteines HC-220C-226C-229C (EU)
B5: J16: Anti-cKIT Fab′1 conjugated to Compound (2), DAR 4 (Fab, V domains shown)
VH: QVQLVQSGAEVKKPGSSVKVSCKASGGTFSSYAISWVRQAPGQGLEWMGVIFPAEGAPGYAQKFQGRVTITADESTSTAYMELSSLRSEDTAVYYCARGGYISDFDVWGQGTLVTVSS
VL: DIQMTQSPSSLSASVGDRVTITCRASQSISNYLAWYQQKPGKAPKLLIYDASSLQSGVPSRFSGSGSGTDFTLTISSLQPEDFATYYCQQYYYESITFGQGTKVEIKR
modifications: Compound (2) on native cysteine LC-214C (EU); Compound (2) on native cysteines HC-220C-226C-229C (EU)
B6: J18: Anti-cKIT Fab′2 conjugated to Compound (5), DAR 4 (Fab, V domains shown)
VH: QVQLVQSGAEVKKPGSSVKVSCKASGGTFSSHALSWVRQAPGQGLEWMGGIIPSFGTADYAQKFQGRVTITADESTSTAYMELSSLRSEDTAVYYCARGLYDFDYWGQGTLVTVSS
VL: DIQMTQSPSSLSASVGDRVTITCRASQDISQDLAWYQQKPGKAPKLLIYDASSLQSGVPSRFSGSGSGTDFTLTISSLQPEDFAVYYCQQYYYLPSTFGQGTKVEIKR
modifications: Compound (5) on native cysteine LC-214C (EU); Compound (5) on native cysteines HC-220C-226C-229C (EU)
B7: J14: Anti-cKIT Fab′1 conjugated to mc-MMAF, DAR 4 (Fab, V domains shown)
VH: QVQLVQSGAEVKKPGSSVKVSCKASGGTFSSYAISWVRQAPGQGLEWMGVIFPAEGAPGYAQKFQGRVTITADESTSTAYMELSSLRSEDTAVYYCARGGYISDFDVWGQGTLVTVSS
VL: DIQMTQSPSSLSASVGDRVTITCRASQSISNYLAWYQQKPGKAPKLLIYDASSLQSGVPSRFSGSGSGTDFTLTISSLQPEDFATYYCQQYYYESITFGQGTKVEIKR
modifications: mc-MMAF on native cysteine LC-214C (EU); mc-MMAF on native cysteines HC-220C-226C-229C (EU)

Target: Human cKIT on human mobilized peripheral blood hematopoietic stem cells (human, UniProt P10721 26-976)
Assay: cell-based or functional assay

**Q.** For B1, which “EC50 (ng/ml), cell viability after 7 days, Human CD34+ cells” value (“EC50 (ng/ml) … Human CD34+ cells” for short) is on record?
**A.** 8 ng/mL

**Q.** What about the “EC50 (ng/ml), cell viability after 7 days, Human CD90+ cells” value (shortened to “EC50 (ng/ml) … Human CD90+ cells”) of the same binder?
**A.** 12 ng/mL

**Q.** What about the “EC50 (ng/ml), cell viability after 7 days, Human total nucleated cells” value (“EC50 (ng/ml) … Human total nucleated cells” below) of the same binder?
**A.** 45 ng/mL

**Q.** What does the source list for B2?
**A.** EC50 (ng/ml), cell viability after 7 days, Human CD34+ cells: 16 ng/mL; EC50 (ng/ml), cell viability after 7 days, Human CD90+ cells: 23 ng/mL; EC50 (ng/ml), cell viability after 7 days, Human total nucleated cells: 14 ng/mL

**Q.** B3 was tested. Which “EC50 (ng/ml) … Human CD34+ cells” value did it give?
**A.** 16 ng/mL

**Q.** And the “EC50 (ng/ml) … Human CD90+ cells” value?
**A.** 37 ng/mL

**Q.** And the “EC50 (ng/ml) … Human total nucleated cells” value?
**A.** 12 ng/mL

**Q.** Which “EC50 (ng/ml) … Human CD34+ cells” value does the source give for B4 here?
**A.** 5 ng/mL

**Q.** What about the “EC50 (ng/ml) … Human CD90+ cells” value of the same binder?
**A.** 1 ng/mL

**Q.** What about the “EC50 (ng/ml) … Human total nucleated cells” value of the same binder?
**A.** 6 ng/mL

**Q.** How did the “EC50 (ng/ml) … Human CD34+ cells” value turn out when B5 was run?
**A.** 7 ng/mL

**Q.** And the “EC50 (ng/ml) … Human CD90+ cells” value?
**A.** 9 ng/mL

**Q.** What about the “EC50 (ng/ml) … Human total nucleated cells” value of the same binder?
**A.** 6 ng/mL

**Q.** Which results are given for B6?
**A.** EC50 (ng/ml), cell viability after 7 days, Human CD34+ cells: 11 ng/mL; EC50 (ng/ml), cell viability after 7 days, Human CD90+ cells: 3 ng/mL; EC50 (ng/ml), cell viability after 7 days, Human total nucleated cells: 15 ng/mL

**Q.** For B7, which “EC50 (ng/ml) … Human CD34+ cells” value is on record?
**A.** 10 ng/mL

**Q.** And the “EC50 (ng/ml) … Human CD90+ cells” value?
**A.** 11 ng/mL

**Q.** And the “EC50 (ng/ml) … Human total nucleated cells” value?
**A.** 7 ng/mL
